Data: paper PMC4423205

What was measured:
Test in all cases: SPR
Details in all cases: all L-ribonucleotides (L-RNA, mirror image); SPR (Biacore 2000), chemokine immobilized on CM4/CM5, physiological running buffer, 37 C; complex formation in 20 mM HEPES pH 7.4, 100 mM NaCl, 5 mM KCl, 1 mM …
[1] = target: CCL11 (eotaxin) (Homo sapiens) (UniProt P51671)
[2] = target: CCL13 (MCP-4) (Homo sapiens) (UniProt Q99616)
[3] = target: CCL2 (MCP-1), wild type (Homo sapiens) (UniProt P13500)
[4] = target: CCL2 K19A K42A (Homo sapiens) (UniProt P13500)
Chain of CCL2 K19A K42A (Homo sapiens) (P13500 24-99 K42A): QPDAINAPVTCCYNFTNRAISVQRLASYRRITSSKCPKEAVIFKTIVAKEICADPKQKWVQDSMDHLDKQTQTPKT

[5] = target: CCL2 R18A R41A (Homo sapiens) (UniProt P13500)
Chain of CCL2 R18A R41A (Homo sapiens) (P13500 24-99 R41A): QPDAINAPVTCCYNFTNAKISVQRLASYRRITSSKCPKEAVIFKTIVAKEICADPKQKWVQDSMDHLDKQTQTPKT

[6] = target: CCL2 R24A R47A (Homo sapiens) (UniProt P13500)
Chain of CCL2 R24A R47A (Homo sapiens) (P13500 24-99 R47A): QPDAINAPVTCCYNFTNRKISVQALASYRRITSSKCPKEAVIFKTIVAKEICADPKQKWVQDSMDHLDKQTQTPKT

[7] = target: CCL2 S21P S44P (Homo sapiens) (UniProt P13500)
Chain of CCL2 S21P S44P (Homo sapiens) (P13500 24-99 S44P): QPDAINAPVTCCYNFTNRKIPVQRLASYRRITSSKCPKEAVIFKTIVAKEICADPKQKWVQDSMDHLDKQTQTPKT

[8] = target: CCL2 S63F S86F (Homo sapiens) (UniProt P13500)
Chain of CCL2 S63F S86F (Homo sapiens) (P13500 24-99 S86F): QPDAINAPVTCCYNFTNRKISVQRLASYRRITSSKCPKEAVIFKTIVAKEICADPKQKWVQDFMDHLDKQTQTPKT

[9] = target: CCL2 S63Y S86Y (Homo sapiens) (UniProt P13500)
Chain of CCL2 S63Y S86Y (Homo sapiens) (P13500 24-99 S86Y): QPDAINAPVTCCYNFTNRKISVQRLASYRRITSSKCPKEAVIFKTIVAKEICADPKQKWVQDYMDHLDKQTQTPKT

[10] = target: T1, CCL8 (MCP-2) (Homo sapiens) (UniProt P80075)
T1 sequence: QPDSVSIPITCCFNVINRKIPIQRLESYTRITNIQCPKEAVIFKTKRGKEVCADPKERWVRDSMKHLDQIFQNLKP

Chain of CCL11 (eotaxin) (Homo sapiens) (P51671 24-97): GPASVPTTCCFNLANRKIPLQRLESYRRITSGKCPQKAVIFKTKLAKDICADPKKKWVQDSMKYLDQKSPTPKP
Chain of CCL2 (MCP-1), wild type (Homo sapiens) (P13500 24-99): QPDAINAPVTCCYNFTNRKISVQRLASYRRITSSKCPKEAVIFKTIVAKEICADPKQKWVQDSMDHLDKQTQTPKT
Chain of CCL13 (MCP-4) (Homo sapiens) (Q99616 24-98): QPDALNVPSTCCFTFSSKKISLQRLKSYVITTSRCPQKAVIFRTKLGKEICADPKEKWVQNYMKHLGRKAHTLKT

Sequence “GCACGUCCCUCACCGGUGCAAGUGAAGCCGUGGCUCUGCG [NOX-E36 L-aptamer (Spiegelmer, without PEG)]” has a Kd [1] of 0.00306 µM, a Kd [2] of 0.022 µM and a Kd [3] of 0.00132 µM. For the same sequence, the Kd [4] was 4.13 µM, the Kd [5] was 0.0141 µM and the Kd [6] was 8.28 µM. The Kd [7] was 0.00794 µM, the Kd [8] was 0.0544 µM and the Kd [9] was 0.0744 µM. The Kd [10] was 0.00335 µM.
